Source: the DeepSol protein solubility set

Experiment: soluble on expression in E. coli; label from the status in PepcDB or PDB records

Row | Sequence | soluble on expression in E. coli
1 | MNNKKPVCAEGMVKMEKKSLLILGTASHVGKSSVVTAICRILSRSYRVAPFKAQNMSLNSWITKDGKEIGIAQAIQAKAAGTEPTADMNPVLLKPKGDCVSQVVLLGEPYADKSAGQYYDSIEEMHAVLKGALERLWKEHDIIVMEGAGGAAEINLYERDIVNVGTARLTKAPIILVGDIERGGVFASLYGTIALLPEDVRKNVKGFIINKFRGDIEILRPGLKQLEDKTGIPVLGVLPHFKLRIPSEDSVSLGDKEDSKAEKEIEVAVIRLPRISNFTDFEPLEGLVKVRYVDINEELGNPDAIMIPGTKNTVNDLLDLRASGMDKKIQAFKGKVPIFGICGGYQMLGRTIFDSGVENGVEAEFEGLGLLDIGTRFGEYKKRTVQVTKKVNGYGPILRPIDGEEIKGYEIHMGVTDSNRTVFGDDGAIDEDGFVIGTYLHGLFDNRNIRNALVRYLYEKKGLEYEPDEAISENDAYEELANVVEQNIDMEKLFEIAGV | not soluble
2 | MSLTCGSGFGGRAFSCISACGPRPGRCCITAAPYRGISCYRGLTGGFGSHSVCGGFRAGSCGRSFGYRSGGVCGPSPPCITTVSVNESLLTPLNLEIDPNAQCVKQEEKEQIKSLNSRFAAFIDKVRFLEQQNKLLETKLQFYQNRECCQSNMEPLFEGYIETLRREAECVEADSGRLASELNHVQEVLEGYKKKYEEEVSLRATAENEFVALKKDVDCAYLRKSDLEANVEALIQEIDFLRRLYEEEIRILQSHISDTSVVVKLDNSRDLNMDCIIAEIKAQYDDIVTRSRAEAESWYRSKCEEMKATVIRHGETLRRTKEEINELNRMIQRLTAEVENAKCQNSKLEAAVAQSEQQGEAALSDARCKLAELEGALQKAKQDMACLIREYQEVMNSKLGLDIEIATYRRLLEGEEQRLCEGIGAVNVCVSSSRGGVVCGDLCVSGSRPVTGSVCSAPCNGNVAVSTGLCAPCGQLNTTCGGGSCGVGSCGISSLGVGSCGSSCRKCEGHHHHHH | not soluble
3 | MSEQVYSGVDQDEDGGLTPLGRIVIDAWVFGILPESEMCTGWSMSQMQNLYEEVYAAWGPYAHLPSRLPPELQQRHSFFYSQRITVAKNNGWDTDLSDES | not soluble
4 | MAVCGLGSRLGLGSRLGLRGCFGAARLLYPRFQSRGPQGVEDGDRPQPSSKTPRIPKIYTKTGDKGFSSTFTGERRPKDDQVFEAVGTTDELSSAIGFALELVTEKGHTFAEELQKIQCTLQDVGSALATPCSSAREAHLKYTTFKAGPILELEQWIDKYTSQLPPLTAFILPSGGKISSALHFCRAVCRRAERRVVPLVQMGETDANVAKFLNRLSDYLFTLARYAAMKEGNQEKIYMKNDPSAESEGL | not soluble
5 | MPPEIMRFKERLEEAMNGESSRAFAAKCGLSDGVIRNYLSGKTYPSLDRLAQIAYATGRPIEWFIQSQSMPMVEHKNNQENKNSQPDRSTLKTKLIAIVELLEDKELHSAIELFRKKGFEALMPEIFSSDDSIQADLQGISQQTLQTAKMLESLPTDTRKKILSKYGIYEQEGLVAPSQEPQDVKKAV | not soluble
6 | MGSDKIHHHHHHMSTPCILCVAITGSLPTKDNNPAVPITISEQIESTHEAFEAGATICHAHVRNDDQTPSSDPEKFERLKEGLEKHCPGMIIQFSTGGRSGAGKARGGMLPLAPDMASLSVGSNNFPTRVYENPPDLVDWLAGEMRTHQVTPEVEAFDLSHILNAIALHKSGALYGKLYVQFVMGVKNAMPADKEVFDFYVDLVKRRAPDANWCAAGIGANQLVVNEWAIAAGGHTRAGLEDNVRLDRNTLAPSNAALIRRAAELCEKYERPVATWQQAREILDVPLRA | not soluble
7 | MSFSQAVSGLNAAATNLDVIGNNIANSATYGFKSGTASFADMFAGSKVGLGVKVAGITQDFTDGTTTNTGRGLDVAISQNGFFRLVDSNGSVFYSRNGQFKLDENRNLVNMQGMQLTGYPATGTPPTIQQGANPAPITIPNTLMAAKSTTTASMQINLNSTDPVPSKTPFSVSDADSYNKKGTVTVYDSQGNAHDMNVYFVKTKDNEWAVYTHDSSDPAATAPTTASTTLKFNENGILESGGTVNITTGTINGATAATFSLSFLNSMQQNTGANNIVATNQNGYKPGDLVSYQINNDGTVVGNYSNEQEQVLGQIVLANFANNEGLASQGDNVWAATQASGVALLGTAGSGNFGKLTNGALEASNVDLSKELVNMIVAQRNYQSNAQTIKTQDQILNTLVNLR | not soluble
8 | MKAARQQAIVDLLLNHTSLTTEALSEQLKVSKETIRRDLNELQTQGKILRNHGRAKYIHRQNQDSGDPFHIRLKSHYAHKADIAREALAWIEEGMVIALDASSTCWYLARQLPDINIQVFTNSHPICHELGKRERIQLISSGGTLERKYGCYVNPSLISQLKSLEIDLFIFSCEGIDSSGALWDSNAINADYKSMLLKRAAQSLLLIDKSKFNRSGEARIGHLDEVTHIISDERQVATSLVTA | soluble
9 | MGSDKIHHHHHHMYYQLYELHHAALQPARTYADAIRLFYSNPLNPVSSTTWGRSIAAAAEMFERTTRRYGKPGFGITSTVVDGKEVRVQEKEVWSRPFCRLLHFERQLPARRKPDVKLLMVAPMSGHYATLLRGTVEAMLPHADVYITDWIDARMVPLSYGNFDLDDYIDYLIEMFHLLGPDASVMAVCQPSVPVLAAVALMEARGDPNLPSSMTLMGGPIDTRRNPTAVNRLAQEHGIEWFRDNVVMSVPWPNPGFMRPVYPGFLQLSGFMSMNLDRHIVAHEEFFMHLVKGDGDSAEKHREFYDEYLAVMDLTAEFYLQTVDTVFIRHALPKGEMTHRSERVDPASIRSVALLTVEGENDDISGIGQTKAAHDLCVNIPSGKRHHHLQPSVGHYGVFNGSRFRKEILPRIVRFVNENRGA | not soluble
10 | MDMQVVPKIGISSVVHSKHIDPGSIDVVGNDIALFDTESVISLYNGPSKLEVVSIGLCLEGSTRFNISLREFELIPGRMVIALPNQIIEHRQFSSNFRGIFFAVSKSLLESLPKVGNVLSFFFFLKDYPCFDLNLHEQEMIKEYHAFIRKRLKNKDDRYRREVVMGLMQGFFFELCNIFNSYAPDASAVVKSKSRKEYIFERFYESLVQSYQSERSVKFYADQLCLTPKHLSGVVKEVSGKTVGEWIDELVILEAKALLNSSSMNIQEIADRLNFANQSFFGKYFKHYTGMSPKEYRKSR | not soluble
11 | MSLNYQMITTDDALASLCEAVRAFPAIALDTEFVRTRTYYPQLGLIQLFDGEHLALIDPLGITDWSPLKAILRDPSITKFLHAGSEDLEVFLNVFGELPQPLIDTQILAAFCGRPMSWGFASMVEEYSGVTLGKSESRTDWLARPLTERQCEYAAADVWYLLPITAKLMVETEASGWLPAALDECRLMQMRRQEVVAPEDAWRDITNAWQLRTRQLACLQLLADWRLRKARERDLAVNFVVREEHLWSVARYMPGSLGELDSLGLSGSEIRFHGKTLLALVEKAQTLPEDALPQPMLNLMDMPGYRKAFKAIKSLITDVSETHKISAELLASRRQINQLLNWHWKLKPQNNLPELISGWRGELMAEALHNLLQEYPQEGGSHHHHHH | soluble
12 | MSANFTDKNGRQSKGVLLLRTLAMPSDTNANGDIFGGWIMSQMDMGGAILAKEIAHGRVVTVAVESMNFIKPISVGDVVCCYGQCLKVGRSSIKIKVEVWVKKVASEPIGERYCVTDAVFTFVAVDNNGRSRTIPRENNQELEKALALISEQPLLEHHHHHH | not soluble
13 | MGSDKIHHHHHHMMKIYKKNIDHYIMLSFEINEMNIPFTGQIVVKEDDEVTREVILGRAKKIHEWLVLVDHIFSPFRTNSELTLYNHRKIEMTGTNLLFQEVFALSIWAKEMTQGLFSANFVGKYNPTGAVKGWAIEKAERIQLEPLLSDPNFVAVNLNGGGDMQFSSSDKHNWQWEIGIVNPFDNKKVISCFRMKNGAIATSGTSQRGEHLFNSSTGRAIPEKNFNVISSSVIGSELTYSDIWATAIATTTINDHSWLKRLSGSGLRISYNKKSERWLNHEIIDQKELIYA | not soluble
14 | MAHHHHHHMKQIDQLIIEEADENTIIPYYLSNLLTNASNPVVFMDVNLGNHFLGKFKFELFQNIVPKTSENFRQFCTGEYKVNNLPVGYKNTTFHRVIKEFMIQGGDFVNYNGSGSLSIYGEIFEDENFDVKHDQEGLLSMANSGPNTNGCQFFITTKKCEWLDGKNVVFGRIIDSDSLILLKKIENVSVTPYIYKPKIPINIVECGEL | not soluble
15 | VQLLESGPGLVKPAQTLSLSCAVSGGSIRSGGYYWSWIRQHPGKGLEWIGYIYHSGNTYYNPSLKSRIAMSVDTSENKFSLRLNSVTAADTAVYYCARLDGYTLDIWGQGTLVTVSSSTKGPSVFPLAPSSKSTSGGTAALGCLVKDYFPEPVTVSWNSGALTSGVHTFPAVLQSSGLYSLSSVVTVPSSSLGTQTYICNVNHKPSNTKVDKRVEP | soluble
16 | NLSSSESQESTGQHQVTVAAVQGNVPRLGLDFNAQRRAVLANHVQETRKLTEQVDFIVWPENSSDVDPFADVRARNLINSAVASVQAPIVVGTVTTDEVGARNAMVVFDPETGEGDWHVKKFLQPFGEWMPWRDFFRKFSSLVDLAGDFKPGEGSGVVRVHAAQLGETVKLGISTCYEVAFDQAGRDAVLAGAQILATPTNNATFGFTDMTYQQLAMSRMRAIELDRAVVVAATSGVSAIVTPRGEVLQHSKIFESATLVQSLPLKETITFSARYGTLLE | not soluble
17 | MGSDKIHHHHHHMHEDHFDKFVQKNLDRNIPIVTTEEAGKSLKELGFMKRHPLKTWDTLIVERGNTLLRVTAMPGRHGPPIVAELLPEVMGSLLDFGIKNSPRSYRMYISGDTMVFDDIKEIPRRYPDVDLALLHLGGTRLLGLVTVTMDAKEGVKMMQLIVPRKAIPIHYNDYDVFKSPLSDFKKEMERAGLQDKIIYLEHGDTYEFDLEEK | not soluble
18 | MSLQWECWPSLPCWRCFAASGRITLSIKRFTQNSRRHDMKITKINAIPLSYRLPEGKTVTMGVGSTIKRDAIIIRVETSEGITGYGEAHPGRSPGAITSLIHNTIAPMLIGMKATDCVGAWQRVHRMQLSSHGLGAGAALAISGIDMALWDIRGKAANMPLYELLGGSKRRIPAYAGGIALGYQPKESLAEEAQEYIARGYKALKLRIGDAARVDIERVRHVRKVLGDEVDILTDANTAYTMADARRVLPVLAEIQAGWLEEPFACNDFASYREVAKITPLVPIAAGENHYTRFEFGQMLDAGAVQVWQPDLSKCGGITEGIRIAAMASAYRIPINAHSSATGLNHAATIHFLAATENAGYFEACVSKFNPFRDMFGTSFEIGADGCVEPPDAPGLGIEVDESIFEKYPAVDGPGYVVKFEGHHHHHH | soluble
19 | VQERIKACFTESIQTQIAAAEALPDAISRAAMTLVQSLLNGNKILCCGNGTSAANAQHFAASMINRFETERPSLPAIALNTDNVVLTAIANDRLHDEVYAKQVRALGHAGDVLLAISTRGNSRDIVKAVEAAVTRDMTIVALTGYDGGELAGLLGPQDVEIRIPSHRSARIQEMHMLTVNCLCDLIDNTLFPHQDD | soluble
20 | MTDVARLLALRSFTELGARQRARALLDAGSFRELLDPFAGVQSPWLERQGIVPQADDGVVVARGLLDGQPAVLAAIEGAFQGGSLGEVSGAKIAGALELAAEDNRNGVPTRALLLLETGGVRLQEANLGLAAIAEIQAAIVDLQRYQPVVAVIAGPVGCFGGMSIAAGLCSYVLVTREARLGLNGPQVIEQEAGIAEYDSRDRPFIWSLTGGEQRFASGLADAYLADDLDEVRTSVLAYFAKGLPARPRCRRAEDYLRRLGDLDTAEQPDAAGVRRLYQGLGQGDAT | not soluble
21 | MPERIATVGWSNHEVPLALGVTPVGFEKVTWGDDDNNGILPWVEETLSKLGSDEPVLFDATDSIPFEEIANTAPDVILASYSGITQEDYDQLSQIAPVVAYPEIAWGTSLDEMIEMNSKAIGLEQEGKDLIADLDAEVASAIDANPELEHHHHHH | not soluble
